What all share (assay): cell-based or functional assay
Assay [1] addresses haemagglutinin of influenza virus A/Udorn/72 (H3N2) (Influenza A virus A/Udorn/72 H3N2).
Assay [2] addresses haemagglutinin of A/Victoria/3/75 (H3N2), on PR8 recombinant virus (Influenza A virus A/Victoria/3/75 (H3N2)), P03435.
The target in assay [3] is haemagglutinin of A/England/195/09 (H1N1), on PR8 recombinant virus (Influenza A virus A/England/195/09 (H1N1)).

The text below walks through data of patent US20130205416A1.

B1: FP3 peptide (…) (peptide)
peptide: WLVFFVIFYFFRRRKK
modifications: not checked
On to B1, for which the IC50 in plaque reduction assay in assay [1] and in assay [2] was 16 µM in each case. The IC50 of inhibition of infectivity (plaque reduction assay) in assay [3] was 0.066 to 0.1 µM.
